Test results taken from patent US6627617.

What was measured:
[1] = system: D412A-68 D412A (Adeno-associated virus 2); assay: EMSA; conditions: apparent Kd, same as wt; 40 mM KCl, 10 mM HEPES pH 7.5, poly dIdC, 25 C
[2] = system: Rep68H6 (wt Rep68) (Adeno-associated virus 2); assay: EMSA; conditions: apparent Kd; 40 mM KCl, 10 mM HEPES pH 7.5, poly dIdC, 25 C

## AAV terminal repeat hairpin with double-stranded trs (32P-TR)
[1]
  Kd: 3 nM
[2]
  Kd: 3 nM
